Measured values reported in JP2006342173A (dated 2006).
Residue numbers refer to the chain shown, from its start.

B1: 2105抗体 (antibody, V domains shown)
VH: EVQLVESGGGLVQPGRSLRLSCAASGFTFDDYAMHWVRQAPGKGLEWVSGISWNSGSLVHADSVKGRFTISRDNAKNSLYLQMNSLRAEDTALYYCARDRLFRGVRYYGMDVWGQGTTVTVSS
VL: EIVLTQSPATLSLSPGERATLSCRASQSVSSYLAWYQQKPGQAPRLLIYDASNRATGIPARFSGSGSGTDFTLTISSLEPEDFAVYYCQQRSHWLTFGGGTKVEIK
notes: Human agonistic anti-CD40 antibody, FERM BP-8024
B2: 4D11抗体 (antibody, V domains shown)
VH: QLQLQESGPGLLKPSETLSLTCTVSGGSISSPGYYGGWIRQPPGKGLEWIGSIYKSGSTYHNPSLKSRVTISVDTSKNQFSLKLSSVTAADTAVYYCTRPVVRYFGWFDPWGQGTLVTVSS
VL: AIQLTQSPSSLSASVGDRVTITCRASQGISSALAWYQQKPGKAPKLLIYDASNLESGVPSRFSGSGSGTDFTLTISSLQPEDFATYYCQQFNSYPTFGQGTKVEIK
notes: Human antagonistic anti-CD40 antibody, FERM BP-7758; Signal peptides predicted by Signal P
B3: 110抗体 (antibody, V domains shown)
VH: QVQLVESGGGVVQPGRSLRLSCAASGFTFSSYGMHWVRQAPGKGLEWVAVIWYDGSIKYYADSVKGRFTISRDNSKNTLYLQMNSLRAEDTAVYYCAREGYNILTGYFGYWGQGTLVTVSS
VL: VIWMTQSPSLLSASTGDRVTISCRMSQGISSDLAWYQQKPGKAPELLISAASTLQSGVPSRFSGSGSGTDFTLTISCLQSEDFATYYCQQYYSFPWTFGQGTKVEIK
notes: Human agonistic anti-CD40 antibody from hybridoma; Signal peptides predicted by Signal P
B4: 115抗体 (antibody, V domains shown)
VH: B3 VH with Y53N
VL: B3 VL
notes: as for B3
B5: F5-77抗体 (antibody, V domains shown)
VH: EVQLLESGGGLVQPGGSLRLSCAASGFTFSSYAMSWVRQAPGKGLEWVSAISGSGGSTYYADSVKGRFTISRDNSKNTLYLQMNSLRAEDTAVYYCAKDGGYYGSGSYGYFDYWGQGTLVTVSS
VL: DIQMTQSPSSVSGSVGDRVTITCRASQGISSWLAWYQQKPGKAPKLLIYAGSSLQSGVPSRFSGSGFGTDFTLTISSLQPEDFATYYCQQASSFPRTFGQGTKVEIK
notes: Human agonistic anti-CD40 antibody from hybridoma; plasmids ATCC PTA-3304 and PTA-3305; Signal peptides predicted by Signal P
B6: F2-103抗体 (antibody, V domains shown)
VH: EVQLVESGGGLVQPGGSLRLSCAVSGFTFSTYWMHWVRQAPGKGLVWVSRINSDGSSTTYADSVKGRFTISRDNAKNTLYLQMNSLRAEDTAVYYCARDRVLWIGELSYYGMDVWGQGTTVTVSS
VL: DIQMTQSPSTLSASVGDRVTITCRASQSISNWLAWYQQKPGKAPKLLLYKASGLESGVPSRFSGSGSGTEFTLTINSLQPDDFATYYCQQSNSYSWTFGHGTKVEIK
notes: Human agonistic anti-CD40 antibody from hybridoma; plasmids ATCC PTA-3302 and PTA-3303; Signal peptides predicted by Signal P
B7: KM281-1-10抗体 (antibody, V domains shown)
VH: QVQLQESGPGLVKPSETLSLTCTVSGGSISGYYWSWIRQPPGKGLEWIGYIYYSGSTNYNPSLKSRVTISVDTSKNQFSLKLNSVTAADTAVYYCARAPLHGDYKWFHPWGQGTLVTVSS
VL: not shown
notes: Human antagonistic anti-CD40 antibody, FERM BP-7579; Signal peptides predicted by Signal P
B8: KM643-4-11抗体 (antibody, V domains shown)
VH: QVQLQQSGPGLVKPSQTLSFTCAISGDSVSSNSAAWNWIRQSPSRGLEWLGRTYYRSKWYKDYAVSVKSRITINPDTSKNQFSLQLNSVTPEDTAVYYCARGYYYGSGSYPYYYQMDVWGQGTTVTVSS
VL: EIVLTQSPATLSLSPGESATLSCRASQSVSSYLAWYQQKPGQAPRLLIYDASNRATGIPARFSGSGSGTDFTLTISSLEPEDFAVYYCQQRSNTFGGGTKVEIK
notes: as for B3

target: T1, ヒトCD40 (human CD40 expressed on cells) (human, UniProt P25942 21-277); test: screening by ELISA (human CD40 mouse FC) and FACS (Ramos cells)
T1 construct: whole, on cells; also called Ramos細胞上のCD40; DC上のCD40
T1 sequence (P25942 21-277): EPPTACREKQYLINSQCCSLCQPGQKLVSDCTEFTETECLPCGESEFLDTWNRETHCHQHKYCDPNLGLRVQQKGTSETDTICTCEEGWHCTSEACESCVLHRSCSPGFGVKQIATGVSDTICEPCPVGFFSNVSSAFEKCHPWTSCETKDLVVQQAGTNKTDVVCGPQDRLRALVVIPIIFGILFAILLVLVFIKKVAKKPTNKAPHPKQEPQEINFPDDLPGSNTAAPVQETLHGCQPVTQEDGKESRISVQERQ

Row | binding result | Binder
1 | binds | B1
2 | binds | B2
3 | binds | B3
4 | binds | B4
5 | binds | B5
6 | binds | B6
7 | binds | B7
8 | binds | B8
